B1: LINE1-full (parent)
chain: UACGUAGGUGGUUUUCCCCUGAUAGUGCUAAGGGGGCCUGGAAGUUUGGACUGGGCAGAGCUCAACACAGCGUGGCAAAGUGGCUGUGGCUAGACUGCCUCUCUGGAUUCCUCGUCACUCAGCAGGGCAUCUCUGAGAGAAAUGCC

Variants of: B1
Assay: self-cleavage, relative activity (ratio to wild type); higher = more cleavage; in vitro, sequencing; the parent is a self-cleaving ribozyme

Point of comparison: UACGUAGGUGGUUUUCCCCUGAUAGUGCUAAGGGGGCCUGGAAGUUUGGACUGGGCAGAGCUCAACACAGCGUGGCAAAGAGGCUGUGGCUAGACUGCCUCUCUGGAUUCCUCGUCACUCAGCAGGGCAUCUCAGAGAGAAAUGCC, self-cleavage 2.49. Against it:
- UACGUAGGUGGUUUUCCCCUGAUAGUGCUAAGGGGGCCUGGAAGUUUGGACUGGGCAGAGCUCAACACAGCGUGGCAAAGAGGCAGUGGCUAGACUGCCUCUCUGGAUUCCUCGUCACUCAGCAGGGCAUCUCUGAGAGAAAUGCC — lower, 0.09
- UACGUAGGUGGUUUUCCCCUGAUAGUGCUAAGGGGGCCUGGAAGUUUGGACUGGGCAGAGCUCAACACAGCGUGGCAAAGAGGCUGUGGCUAGACUGCCACUCUGGAUUCCUCGUCACUCAGCAGGGCAUCUCUGAGAGAAAUGCC — lower, 2.09
- UACGUAGGUGGUUUUCCCCUGAUAGUGCUAAGGGGGCCUGGAAGUUUGGACUGGGCAGAGCUCAACACAGCGUGGCAAAGAGGCUGUGGCUAGACUGCCUCUCUGGAUUCCUCGUCACUCAGCAGUGCAUCUCUGAGAGAAAUGCC — lower, 2.04
- UACGUAGGUGGUUUUCCCCUGAUAGUGCUAAGGGGGCCUGGAAGUUUGGACUGGGCAGAGCUCAACACAGCGUGGCAAAGAGGCUGUGGCUAGACUGCCUCUCUGGAUUCCUCGUCACACAGCAGGGCAUCUCUGAGAGAAAUGCC — higher, 2.53
- UACGUAGGUGGUUUUCCCCUGAUAGUGCUAAGGGGGCCUGGAAGUUUGGACUGGGCAGAGCUCAACACAGCGUGGCAAAGAGGCUGUGGCUAGACUGCCUCUCUGGAUUCCUCGUCACCCAGCAGGGCAUCUCUGAGAGAAAUGCC — higher, 2.53
- UACGUAGGUGGUUUUCCCCUGAUAGUGCUAAGGGGGCCUGGAAGUUUGGACUGGGCAGAGCUCAACACAGCGUGGCAAAGAGGCUGUGACUAGACUGCCUCUCUGGAUUCCUCGUCACUCAGCAGGGCAUCUCUGAGAGAAAUGCC — lower, 0
- UACGUAGGUGGUUUUCCCCUGAUAGUGCUAAGGGGGCCUGGAAGUUUGGACUGGGCAGAGCUCAACACAGCGUGGCAAAGAGGCUGUGGCCAGACUGCCUCUCUGGAUUCCUCGUCACUCAGCAGGGCAUCUCUGAGAGAAAUGCC — lower, 0.77
- UACGUAGGUGGUUUUCCCCUGAUAGUGCUAAGGGGGCCUGGAAGUUUGGACUGGGCAGAGCUCAACACAGCGUGGCAAAGAGGCUGUGGCUAGACCGCCUCUCUGGAUUCCUCGUCACUCAGCAGGGCAUCUCUGAGAGAAAUGCC — lower, 0.13
- UACGUAGGUGGUUUUCCCCUGAUAGUGCUAAGGGGGCCUGGAAGUUUGGACUGGGCAGAGCUCAACACAGCGUGGCAAAGAGGCUGUGGCUAGACAGCCUCUCUGGAUUCCUCGUCACUCAGCAGGGCAUCUCUGAGAGAAAUGCC — lower, 0.07
- UACGUAGGUGGUUUUCCCCUGAUAGUGCUAAGGGGGCCUGGAAGUUUGGACUGGGCAGAGCUCAACACAGCGUGGCAAAGAGGCUGUGGCUAGACUGCCUCUCUGGAUUCCUCGUCACUCAGCAGGGCACCUCUGAGAGAAAUGCC — lower, 2.43
- UACGUAGGUGGUUUUCCCCUGAUAGUGCUAAGGGGGCCUGGAAGUUUGGACUGGGCAGAGCUCAACACAGCGUGGCAAAGAGUCUGUGGCUAGACUGCCUCUCUGGAUUCCUCGUCACUCAGCAGGGCAUCUCUGAGAGAAAUGCC — lower, 1.3
- UACGUAGGUGGUUUUCCCCUGAUAGUGCUAAGGGGGCCUGGAAGUUUGGACUGGGCAGAGCUCAACACAGCGUGGCAAAGAGGCUGUGGCUAGACUGCCUCUCUGGAUUCCUCGUCACUCAGCAGGACAUCUCUGAGAGAAAUGCC — lower, 1.72
- UACGUAGGUGGUUUUCCCCUGAUAGUGCUAAGGGGGCCUGGAAGUUUGGACUGGGCAGAGCUCAACACAGCGUGGCAAAGAGGCUGUGGCUAGACUGCCUCUCUGGAUUCCUCGCCACUCAGCAGGGCAUCUCUGAGAGAAAUGCC — lower, 2.44
- UACGUAGGUGGUUUUCCCCUGAUAGUGCUAAGGGGGCCUGGAAGUUUGGACUGGGCAGAGCUCAACACAGCGUGGCAAAGAGGCUGUGGCUAGACUGCCUCUCUGGAUUCCUCGACACUCAGCAGGGCAUCUCUGAGAGAAAUGCC — lower, 2.46
- UACGUAGGUGGUUUUCCCCUGAUAGUGCUAAGGGGGCCUGGAAGUUUGGACUGGGCAGAGCUCAACACAGCGUGGCAAAGAGGCUGUGGCUAGACUGCCUCUCUGGAUUCCUCGUCACUCAGCAGGGCAUCCCUGAGAGAAAUGCC — lower, 2.25
- UACGUAGGUGGUUUUCCCCUGAUAGUGCUAAGGGGGCCUGGAAGUUUGGACUGGGCAGAGCUCAACACAGCGUGGCAAAGAGGCUGUGGCUAGACUGCCUCUCUGGAUUCCUCGUCACUCAGCAGGGCAUCACUGAGAGAAAUGCC — lower, 1.7
- UACGUAGGUGGUUUUCCCCUGAUAGUGCUAAGGGGGCCUGGAAGUUUGGACUGGGCAGAGCUCAACACAGCGUGGCAAAGAGGCUGUGGCUAGACUGCCUCUCUGGAUUCCACGUCACUCAGCAGGGCAUCUCUGAGAGAAAUGCC — lower, 1.7
- UACGUAGGUGGUUUUCCCCUGAUAGUGCUAAGGGGGCCUGGAAGUUUGGACUGGGCAGAGCUCAACACAGCGUGGCAAAGAGGCUGUGGCUAGACUGCCUCUCUGGAUCCCUCGUCACUCAGCAGGGCAUCUCUGAGAGAAAUGCC — lower, 1.98
- UACGUAGGUGGUUUUCCCCUGAUAGUGCUAAGGGGGCCUGGAAGUUUGGACUGGGCAGAGCUCAACACAGCGUGGCAAAGAGGCUGUAGCUAGACUGCCUCUCUGGAUUCCUCGUCACUCAGCAGGGCAUCUCUGAGAGAAAUGCC — lower, 0.06
